Experimental data taken from patent US20120195897A1 (US Dept. of Health and Human Services, published 2012).

Target: T1, IGF ligand 2 (IGF-2) (human, UniProt P01344 25-91)
T1 construct: Used as antigen in ELISA and as stimulus (10 nM) on MCF-7 cells; also called insulin-like growth factor 2
Assay: ELISA

T1 sequence (P01344 25-91 limits assumed): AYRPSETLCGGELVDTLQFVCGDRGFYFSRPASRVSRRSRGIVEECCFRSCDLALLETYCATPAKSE

B1: m636 (VHH)
VHH: QVQLVQSGGGLVQPGGSLRLSCAASYYSLQHDNFPYTFMSWVRQAPGQRLEWVSGISGSGGSTYYADSVKGRFTISRDNSKNTLYLQMNTLRAEDTAMYYCARIRWLQDLDYWGQGTLVTVSS
notes: Human VH single domain antibody (dAb) selected from phage library m91; also called dAb m636; IGF-2 dAb
- binding result: binds
